This experiment addresses T1, natriuretic peptide receptor-B (human).
T1 chain: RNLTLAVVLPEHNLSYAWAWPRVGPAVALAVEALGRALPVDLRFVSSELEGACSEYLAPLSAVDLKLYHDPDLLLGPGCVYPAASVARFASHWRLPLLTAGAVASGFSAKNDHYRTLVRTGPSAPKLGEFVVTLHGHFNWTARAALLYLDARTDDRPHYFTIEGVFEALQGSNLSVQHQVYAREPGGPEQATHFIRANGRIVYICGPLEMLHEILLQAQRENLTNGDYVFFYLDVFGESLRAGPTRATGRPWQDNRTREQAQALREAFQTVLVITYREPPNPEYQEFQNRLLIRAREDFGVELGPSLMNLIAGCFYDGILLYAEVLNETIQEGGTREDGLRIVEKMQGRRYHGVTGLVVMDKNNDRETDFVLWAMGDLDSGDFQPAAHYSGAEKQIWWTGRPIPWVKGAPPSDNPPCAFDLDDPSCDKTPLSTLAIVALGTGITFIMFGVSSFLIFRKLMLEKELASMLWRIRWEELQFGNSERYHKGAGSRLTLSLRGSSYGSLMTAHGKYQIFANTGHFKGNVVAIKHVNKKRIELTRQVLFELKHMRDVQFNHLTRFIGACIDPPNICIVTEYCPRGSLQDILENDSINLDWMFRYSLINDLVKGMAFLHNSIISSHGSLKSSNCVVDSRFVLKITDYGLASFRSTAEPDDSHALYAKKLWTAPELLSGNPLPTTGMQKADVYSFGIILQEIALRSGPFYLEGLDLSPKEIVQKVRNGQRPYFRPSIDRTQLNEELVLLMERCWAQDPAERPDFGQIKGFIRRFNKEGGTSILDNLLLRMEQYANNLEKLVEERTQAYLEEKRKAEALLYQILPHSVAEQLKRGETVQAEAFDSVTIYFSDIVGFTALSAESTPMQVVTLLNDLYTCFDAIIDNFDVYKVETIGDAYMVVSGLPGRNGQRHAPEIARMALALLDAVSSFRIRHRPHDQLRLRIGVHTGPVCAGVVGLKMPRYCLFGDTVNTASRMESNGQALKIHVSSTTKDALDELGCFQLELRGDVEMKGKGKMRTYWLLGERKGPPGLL
As to the kind of experiment: cell-based or functional assay.

Numbered stars: 1 amine (or outer) side, 2 acyl side, 3 side chain; on linkers, the order of the positions; unused ones are H or OH. Square brackets hold non-standard residues; d marks the D form. Ends that are not written are not given here. * marks the point of attachment. Tap(2Me) = (2S,4R)-4-(dimethylamino)pyrrolidine-2-carboxylic acid, CN(C)[C@@H]1C[C@@H](C(=O)[*:2])N([*:1])C1; Ebe = (R)-2-amino-3-(methylsulfanyl)propanoic acid, CSC[C@H](N[*:1])C(=O)[*:2]; 6072‑OH = rac-7-hydroxy-dodecanoic acid, CCCCCC(O)CCCCCC(=O)*; Pro(trans-4-NH2) = O=C([C@@H]1C[C@@H](N[*:3])CN1[*:1])[*:2]; 6071‑OH = rac-6-hydroxy-decanoic acid, CCCCC(O)CCCCC(=O)*; Pro(trans-4-guanidino) = N=C(N)N[C@H]1CN[C@H](C(=O)O)C1; Sni = (S)-nipecotic acid, O=C([C@H]1CCCN([*:1])C1)[*:2]; Hyp = O=C(O)[C@@H]1C[C@@H](O)CN1; NMeF = CN[C@@H](Cc1ccccc1)C(=O)O; 2Pal = N[C@@H](Cc1ccccn1)C(=O)O; 4Pal = N[C@@H](Cc1ccncc1)C(=O)O; NMeL = CN[C@@H](CC(C)C)C(=O)O; Lauroyl = CCCCCCCCCCCC(=O)*; Decanoyl = CCCCCCCCCC(=O)*; dOrn = NCCC[C@@H](N)C(=O)O; 3Amb = NCc1cccc(C(=O)O)c1; Octanoyl = CCCCCCCC(=O)*; FrL = not defined here; Hexanoyl = CCCCCC(=O)*; Oct = not defined here

Regarding Octanoyl-[dA]FGL[Pro(trans-4-guanidino)]LDRI-NH2 [JAL-1270], the “EC50 group, cGMP in GTM-3 cells” value is not above 5 µM.

B1: JAL-1244 (peptide)
peptide: Lauroyl-[NMeF]RL[Hyp][NMeL]DRI-NH2
modifications: not fully specified (some residues); printed as 832-Nmf-arg-Leu-Hyp-Nml-Asp-Arg-Ile-NH2
On to B1, for which the “EC50 group, cGMP in GTM-3 cells” value was not above 15 µM.

B2: JAL-1260 (peptide)
peptide: {6072‑OH}-FRL[Hyp][NMeL]DRI-NH2
modifications: not fully specified (some residues); printed as (6072-OH)-Phe-arg-Leu-Hyp-Nml-Asp-Arg-Ile-NH2
With B2, the “EC50 group, cGMP in GTM-3 cells” value is not above 5 µM.

B3: JAL-1268 (peptide)
peptide: Octanoyl-A[NMeF]KL[Hyp][NMeL]DRI-NH2
modifications: not fully specified (some residues); printed as Occ-ala-Nmf-lys-Leu-Hyp-Nml-Asp-Arg-Ile-
In the case of B3, the “EC50 group, cGMP in GTM-3 cells” value is not above 5 µM. For Octanoyl-[dA]F[dR]L[Pro(trans-4-guanidino)]LDRI-NH2 [JAL-1271] the value was not above 5 µM.

B4: JAL-1246 (peptide)
peptide: Lauroyl-FRL[Hyp]LDRI-NH2
modifications: not fully specified (some residues); printed as 832-Phe-arg-Leu-Hyp-Leu-Asp-Arg-Ile-NH2
Consider B4, for which the “EC50 group, cGMP in GTM-3 cells” value is not above 15 µM.

B5: JAL-1263 (peptide)
peptide: Octanoyl-AFRL[Tap(2Me)]LDRI-NH2
modifications: not fully specified (some residues); printed as Occ-ala-Phe-arg-Leu-Tap(2Me)-Leu-Asp-Arg-Ile-NH2
For B5, the “EC50 group, cGMP in GTM-3 cells” value is not above 5 µM.

B6: JAL-1249 (peptide)
peptide: Octanoyl-AFGL[Pro(trans-4-NH2)]LDRI-NH2
modifications: not fully specified (some residues); printed as Occ-ala-Phe-Gly-Leu-Tap-Leu-Asp-Arg-Ile-NH2
Turning to B6, the “EC50 group, cGMP in GTM-3 cells” value is not above 1 µM.

B7: JAL-1265 (peptide)
peptide: Octanoyl-[Sni]FXL[Hyp][NMeL]DRI-NH2
modifications: not fully specified (some residues); printed as Occ-Sni-Phe-orn-Leu-Hyp-Nml-Asp-Arg-Ile-NH2
For B7, the “EC50 group, cGMP in GTM-3 cells” value was not above 1 µM.

B8: JAL-1256 (peptide)
peptide: Octanoyl-[Sni]XLL[Hyp][NMeL]DRI-NH2
modifications: not fully specified (some residues); printed as Occ-Sni-Mpa-leu-Leu-Hyp-Nml-Asp-Arg-Ile-
As to B8, the “EC50 group, cGMP in GTM-3 cells” value is not above 15 µM.

B9: JAL-1264 (peptide)
peptide: Octanoyl-AFLL[Tap(2Me)]LDRI-NH2
modifications: not fully specified (some residues); printed as Occ-ala-Phe-leu-Leu-Tap(2Me)-Leu-Asp-Arg-Ile-NH2
Turning to B9, the “EC50 group, cGMP in GTM-3 cells” value was not above 5 µM.

B10: JAL-0543 (peptide)
peptide: Hexanoyl-[3Amb]FGLKLDRIS[Ebe]-NH2
SMILES: CCCCCC(=O)NCc1cccc(C(=O)N[C@@H](Cc2ccccc2)C(=O)NCC(=O)N[C@@H](CC(C)C)C(=O)N[C@@H](CCCCN)C(=O)N[C@@H](CC(C)C)C(=O)N[C@@H](CC(=O)O)C(=O)N[C@@H](CCCNC(=N)N)C(=O)N[C@H](C(=O)N[C@@H](CO)C(=O)N[C@@H](CSC)C(N)=O)[C@@H](C)CC)c1
As for B10, the “EC50 group, cGMP in GTM-3 cells” value is not above 15 µM.

B11: JAL-1266 (peptide)
peptide: Octanoyl-[Sni][2Pal]LL[Hyp][NMeL]DRI-NH2
modifications: not fully specified (some residues); printed as Occ-Sni-Opa-leu-Leu-Hyp-Nml-Asp-Arg-Ile-
Turning to B11, the “EC50 group, cGMP in GTM-3 cells” value was not above 5 µM.

In the case of Hexanoyl-G[dA]FGLKLDRI-NH2 [JAL-0631], the “EC50 group, cGMP in GTM-3 cells” value was not above 15 µM. Regarding [Oct][Sni][FrL][Hyp]LDRI-NH2 (reading uncertain; also: printed as Oct-Sni-FrL-Hyp-Leu-Asp-Arg-Ile-NH2) [JAL-1248], the “EC50 group, cGMP in GTM-3 cells” value is not above 5 µM.

B12: JAL-1254 (peptide)
peptide: Octanoyl-[Sni]FKL[Hyp][NMeL]DRI-NH2
modifications: not fully specified (some residues); printed as Occ-Sni-Phe-lys-Leu-Hyp-Nml-Asp-Arg-Ile-NH2
Take B12: the “EC50 group, cGMP in GTM-3 cells” value was not above 1 µM.

B13: JAL-1250 (peptide)
peptide: Octanoyl-AFRL[Pro(trans-4-NH2)]LDRI-NH2
modifications: not fully specified (some residues); printed as Occ-ala-Phe-arg-Leu-Tap-Leu-Asp-Arg-Ile-NH2
B13: the “EC50 group, cGMP in GTM-3 cells” value is not above 1 µM.

B14: JAL-1261 (peptide)
peptide: Decanoyl-FRL[Hyp][NMeL]DRI-NH2
modifications: not fully specified (some residues); printed as 5587-Phe-arg-Leu-Hyp-Nml-Asp-Arg-Ile-NH2
As for B14, the “EC50 group, cGMP in GTM-3 cells” value was not above 15 µM.

B15: JAL-1259 (peptide)
peptide: {6071‑OH}-FRL[Hyp][NMeL]DRI-NH2
modifications: not fully specified (some residues); printed as (6071-OH)-Phe-arg-Leu-Hyp-Nml-Asp-Arg-Ile-NH2
For the molecule B15, the “EC50 group, cGMP in GTM-3 cells” value was not above 15 µM.

B16: JAL-1252 (peptide)
peptide: Octanoyl-AFSL[Hyp][NMeL]DRI-NH2
modifications: not fully specified (some residues); printed as Occ-ala-Phe-ser-Leu-Hyp-Nml-Asp-Arg-Ile-NH2
For B16, the “EC50 group, cGMP in GTM-3 cells” value was not above 1 µM.

B17: JAL-1257 (peptide)
peptide: Octanoyl-[Sni][4Pal]LL[Hyp][NMeL]DRI-NH2
modifications: not fully specified (some residues); printed as Occ-Sni-Ppa-leu-Leu-Hyp-Nml-Asp-Arg-Ile-NH2
Turning to B17, the “EC50 group, cGMP in GTM-3 cells” value was not above 15 µM.

B18: JAL-1251 (peptide)
peptide: Octanoyl-AFLL[Pro(trans-4-NH2)]DRI-NH2
modifications: not fully specified (some residues); printed as Occ-ala-Phe-leu-Leu-Tap-Asp-Arg-Ile-NH2
Consider B18, for which the “EC50 group, cGMP in GTM-3 cells” value is not above 1 µM.

B19: JAL-1253 (peptide)
peptide: Octanoyl-[Sni]FSL[Hyp][NMeL]DRI-NH2
modifications: not fully specified (some residues); printed as Occ-Sni-Phe-ser-Leu-Hyp-Nml-Asp-Arg-Ile-NH2
On to B19, for which the “EC50 group, cGMP in GTM-3 cells” value was not above 5 µM.

B20: JAL-1262 (peptide)
peptide: Octanoyl-AFGL[Tap(2Me)]LDRI-NH2
modifications: not fully specified (some residues); printed as Occ-ala-Phe-Gly-Leu-Tap(2Me)-Leu-Asp-Arg-Ile-
With B20, the “EC50 group, cGMP in GTM-3 cells” value was not above 5 µM. Regarding Hexanoyl-A[dA]FGLKLDRI-NH2 [JAL-0632], the “EC50 group, cGMP in GTM-3 cells” value is not above 15 µM. As for Octanoyl-[dA][NMeF][dOrn]L[Hyp][NMeL]DRI-NH2 [JAL-1269], the figure is not above 5 µM.

B21: JAL-1245 (peptide)
peptide: Lauroyl-FLL[Hyp][NMeL]DRI-NH2
modifications: not fully specified (some residues); printed as 832-Phe-leu-Leu-Hyp-Nml-Asp-Arg-Ile-NH2
Regarding B21, the “EC50 group, cGMP in GTM-3 cells” value was not above 5 µM.

B22: JAL-1255 (peptide)
peptide: Octanoyl-[Sni]FRL[Hyp][NMeL]DRI-NH2
modifications: not fully specified (some residues); printed as Occ-Sni-Phe-arg-Leu-Hyp-Nml-Asp-Arg-Ile-NH2
Turning to B22, the “EC50 group, cGMP in GTM-3 cells” value was not above 1 µM.

For the origin of these results see patent US9187525B2, “Methods of treating ophthalmic diseases using NPR-B agonists” (Shire Orphan Therapies GmbH, dated 2015).
